Laboratory results reported in publication PMC6752053 (Cell, 2019).

Biological target: the molecule itself
Assay: X-ray diffraction of polymer pellets

B1: His6-Pbp1_LC (C-terminal low-complexity region of Pbp1, a.a.570-722) (domain or fragment, S. cerevisiae, UniProt P53297 570-722, looked up)
chain: NSMGNAVPGMNPAMGMNMGGMMGFPMGGPSASPNPMMNGFAAGSMGMYMPFQPQPMFYHPSMPQMMPVMGSNGAEEGGGNISPHVPAGFMAAGPGAPMGAFGYPGGIPFQGMMGSGPSGMPANGSAMHSHGHSRNYHQTSHHGHHNSSTSGHK
binding result: binds
